Substrate in the data set: Nc1ncnc2c1ncn2[C@@H]1O[C@H](COP(=O)(O)OP(=O)(O)OP(=O)(O)O)[C@@H](O)[C@H]1O
The data set can be described thus: purified protein. The data set is classed as biochemical, Escherichia coli. To be noted: non-parallel (TTAGGG)4-T15 G4 DNA, 100 nM protein, 1 μM to 2 mM ATP, 50 mM KCl, 3 mM MgCl2, pH 7.5, ~23 °C.

B1: UvrD (Escherichia coli K-12) (protein)
chain: MDVSYLLDSLNDKQREAVAAPRSNLLVLAGAGSGKTRVLVHRIAWLMSVENCSPYSIMAVTFTNKAAAEMRHRIGQLMGTSQGGMWVGTFHGLAHRLLRAHHMDANLPQDFQILDSEDQLRLLKRLIKAMNLDEKQWPPRQAMWYINSQKDEGLRPHHIQSYGNPVEQTWQKVYQAYQEACDRAGLVDFAELLLRAHELWLNKPHILQHYRERFTNILVDEFQDTNNIQYAWIRLLAGDTGKVMIVGDDDQSIYGWRGAQVENIQRFLNDFPGAETIRLEQNYRSTSNILSAANALIENNNGRLGKKLWTDGADGEPISLYCAFNELDEARFVVNRIKTWQDNGGALAECAILYRSNAQSRVLEEALLQASMPYRIYGGMRFFERQEIKDALSYLRLIANRNDDAAFERVVNTPTRGIGDRTLDVVRQTSRDRQLTLWQACRELLQEKALAGRAASALQRFMELIDALAQETADMPLHVQTDRVIKDSGLRTMYEQEKGEKGQTRIENLEELVTATRQFSYNEEDEDLMPLQAFLSHAALEAGEGQADTWQDAVQLMTLHSAKGLEFPQVFIVGMEEGMFPSQMSLDEGGRLEEERRLAYVGVTRAMQKLTLTYAETRRLYGKEVYHRPSRFIGELPEECVEEVRLRATVSRPVSHQRMGTPMVENDSGYKLGQRVRHAKFGEGTIVNMEGSGEHSRLQVAFQGQGIKWLVAAYARLESV
notes: expressed in E. coli BL21(DE3) pLysS; Polymin P, ammonium sulfate, heparin and Sephacryl S-300 purification; no tag mentioned
Usually Km stands for the substrate concentration at which the rate is half of its maximum. On to B1, for which the Km stood at 42.52 ± 13.8 µM.

(Values after article PMC7337899, “E. coli Rep helicase and RecA recombinase unwind G4 DNA and are important for resistance to G4-stabilizing ligands” (Nucleic Acids Research, 2020).)
